This is an account of results in patent US20230014722A1 (CSTONE PHARMACEUTICALS, published 2023).

In test [1] the target is T1, mouse PD-1 on transfected 293F cells (mouse, UniProt Q02242 25-288).
T1 construct: whole, on cells; also called cell surface mouse PD-1
T1 sequence (looked up): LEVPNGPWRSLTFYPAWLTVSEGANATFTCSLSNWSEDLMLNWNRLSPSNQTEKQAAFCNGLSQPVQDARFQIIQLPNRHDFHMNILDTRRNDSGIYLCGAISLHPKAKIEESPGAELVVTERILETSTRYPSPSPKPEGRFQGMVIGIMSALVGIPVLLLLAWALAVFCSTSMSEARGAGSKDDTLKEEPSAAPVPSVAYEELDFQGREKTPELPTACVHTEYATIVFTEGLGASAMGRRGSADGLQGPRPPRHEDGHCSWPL
Nature of the test: FACS, mouse PD-1 transfected 293F cells.

Test [2] deals with T2, human PD-1 on transfected cells (human, UniProt Q15116 25-288).
T2 construct: also called CHO-S cells expressing human PD-1; human PD-1 transfected CHO-S cells
Briefly: FACS, human PD-1 transfected CHO-S cells.

The target in test [3] is T3, human PD-1 (Sino Biological), coated on plates (human, UniProt Q15116 25-167).
T3 construct: whole entry named
Briefly: ELISA, plates coated with human PD-1 at 1 µg/ml. As to the method:
(§1) For ELISA, plates (Nunc) were coated with human, cynomolgus or mouse PD-1 (Sino Biological) at 1 μg/ml overnight at 4° C. After blocking and washing, antibodies were serially diluted in blocking buffer and added to the plates and incubated at room temperature for 1 h. The plates were then washed and subsequently incubated with secondary antibody goat anti human IgG HRP (Bethyl) for 1 h. After washing, TMB substrate was added and the reaction was stopped by 2 M HCl. The absorbance at 450 nm was read using a microplate reader (Molecular Device).
In general terms: An ELISA detects its analyte on a solid surface through an enzyme-linked reagent.

For test [4], the target named is T4, mouse PD-1 (Sino Biological), coated on plates (mouse, UniProt Q02242 25-167).
T4 sequence (looked up): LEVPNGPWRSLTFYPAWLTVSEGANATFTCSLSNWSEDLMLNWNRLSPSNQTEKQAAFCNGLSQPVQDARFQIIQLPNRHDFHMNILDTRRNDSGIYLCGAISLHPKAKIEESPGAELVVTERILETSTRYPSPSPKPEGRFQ
Nature of the test: ELISA, plates coated with mouse PD-1 at 1 µg/ml. As to the method: as §1

Test [5] has as its target cynomolgus PD-1 (Sino Biological), coated on plates (cynomolgus, UniProt B0LAJ3 25-170). Nature of the test: ELISA, plates coated with cynomolgus PD-1 at 1 µg/ml. As to the method:
as §1

The target in test [6] is T1, mouse PD-1 on transfected 293F cells. Nature of the test: flow cytometry on 293F cells expressing mouse PD-1, quantitative beads. As to the method: (§2) Testing antibodies were 1:2 serially diluted in wash buffer (1×PBS/1% BSA) and incubated with cells at 4° C. for 1 h.
A general note: Flow cytometry measures light scatter and fluorescence of single cells or particles in a stream.

Test [7] has as its target T2, human PD-1 on transfected cells. Briefly: flow cytometry on CHO-S cells expressing human PD-1, quantitative beads. As to the method: as §2
The target in test [8] is T5, human CD28 on a constructed cell line (human, UniProt P10747 19-220).
T5 construct: whole, on cells
Nature of the test: FACS, CD28.CHO-K1 cells, one antibody concentration (not given). As to the method: (§3) Constructed cell lines that respectively express human PD-1, CD28, CTLA-4 or ICOS were transferred in to 96-well U-bottom plates (BD) at a density of 2×10⁵ cells/well. Testing antibodies were diluted in wash buffer (1×PBS/1% BSA) and incubated with cells at 4° C. for 1 h. After washing, the secondary antibody goat anti-human IgG Fc FITC (Jackson ImmunoResearch Lab) was added and incubated at 4° C. in the dark for 1 h. The cells were then washed once and resuspended in 1×PBS/1% BSA, and analyzed by flow cytometery (BD) and FlowJo software.

Test [9] addresses T6, human CTLA-4 on a constructed cell line (human, UniProt P16410 36-223).
T6 construct: whole, on cells
Briefly: FACS, CTLA-4.293F cells, one antibody concentration (not given). As to the method: as §3

A further test concerns the target T7, hPD-1.His (human, UniProt Q15116 25-170).
T7 construct: the SPR text says only human PD-1; also called human PD-1 (SPR analyte)
Nature of the test: SPR (ProteOn XPR36), antibody captured on Protein A, PD-1.His as analyte, 1:1 fit. An excerpt: (§4) Antibodies were characterized for affinity and binding kinetics to PD-1 by SPR assay using ProteOn XPR36 (Bio-Rad). Protein A protein (Sigma) was immobilized to a GLM sensor chip (Bio-Rad) through amine coupling. Purified antibodies were flowed over the sensor chip and captured by the Protein A. The chip was rotated […] and washed with running buffer (1×PBS/0.01% Tween20, Bio-Rad) until the baseline was stable. Seven concentrations of human PD-1 and running buffer were flowed through the sensor chip at a flow rate of 30 μL/min for an association phase of 180 s, followed by 300s dissociation. After regeneration, seven concentration of mouse PD-1 and running buffer were flowed through the sensor chip at a flow rate of 30 μL/min for an association phase of 180 s, followed by 300 s dissociation. The chip was regenerated with pH 1.5 H₃PO₄ after each run. The association and dissociation curve was fit by 1:1 Langmuir binding model using ProteOn software.

The target of the next test is T8, mPD-1.His (mouse, UniProt Q02242 25-167, limits assumed).
T8 construct: Soluble analyte, probably the extracellular domain; also called mouse PD-1 (SPR analyte)
T8 sequence (looked up): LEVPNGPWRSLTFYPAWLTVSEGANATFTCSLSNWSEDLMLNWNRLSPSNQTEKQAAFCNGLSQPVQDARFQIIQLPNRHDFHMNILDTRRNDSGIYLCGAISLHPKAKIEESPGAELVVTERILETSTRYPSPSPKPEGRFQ
The description is as above.
From the text: as §4

Test [10] deals with human PD-1 antigen protein of the affinity-maturation screen (human, UniProt Q15116 25-167, limits assumed, biotinylated). Nature of the test: capture ELISA, second-round affinity-maturation screen (scFv format likely); unit not given.
Test [11] concerns the target T9, mouse PD-1 antigen protein of the affinity-maturation screen (mouse, UniProt Q02242 25-167, limits assumed, biotinylated).
T9 sequence (looked up): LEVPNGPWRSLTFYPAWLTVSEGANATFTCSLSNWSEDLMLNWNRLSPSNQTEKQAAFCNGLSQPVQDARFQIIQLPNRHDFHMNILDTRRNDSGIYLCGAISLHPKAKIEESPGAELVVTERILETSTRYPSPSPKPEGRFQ
Described as above.

In test [12] the target is cynomolgus PD-1 antigen protein of the affinity-maturation screen (cynomolgus). The description is as above.
For test [13], the target named is T1, mouse PD-1 on transfected 293F cells. Nature of the test: FACS blocking assay: mouse Fc fusion-mouse PD-L1 binding to mouse PD-1 transfected 293F cells.
Test [14] deals with T2, human PD-1 on transfected cells. Nature of the test: FACS blocking assay: mouse Fc fusion-human PD-L1 binding to human PD-1 transfected CHO-S cells.
Test [15] has the same target. Briefly: FACS competition on CHO-S cells expressing human PD-1 against biotinylated Keytruda at 1 µg/ml. As to the method: (§5) The cells were washed and the second antibody Streptavidin-PE were added and incubated for 30 min at 4° C. The cells were then washed once and resuspended in 1×PBS/1% BSA, and analyzed by flow cytometery (BD).
For test [16] the target is unchanged. Nature of the test: FACS competition on CHO-S cells expressing human PD-1 against biotinylated WBP305BMK1 at 1 µg/ml. As to the method:
as §5

T6 sequence (P16410 36-223): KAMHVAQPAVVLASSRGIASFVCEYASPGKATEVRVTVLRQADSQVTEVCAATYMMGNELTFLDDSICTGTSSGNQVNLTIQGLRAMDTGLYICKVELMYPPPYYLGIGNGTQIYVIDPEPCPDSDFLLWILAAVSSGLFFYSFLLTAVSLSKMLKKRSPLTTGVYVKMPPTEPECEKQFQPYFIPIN
T2 sequence (Q15116 25-288 limits assumed): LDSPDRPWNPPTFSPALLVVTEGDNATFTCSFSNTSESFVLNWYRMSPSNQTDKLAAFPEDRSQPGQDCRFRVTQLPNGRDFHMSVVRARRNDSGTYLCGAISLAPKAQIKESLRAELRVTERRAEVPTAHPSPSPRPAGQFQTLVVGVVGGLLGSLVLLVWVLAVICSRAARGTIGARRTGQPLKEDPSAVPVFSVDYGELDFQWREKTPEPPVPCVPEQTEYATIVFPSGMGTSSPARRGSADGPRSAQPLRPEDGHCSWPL
T7 sequence (Q15116 25-170): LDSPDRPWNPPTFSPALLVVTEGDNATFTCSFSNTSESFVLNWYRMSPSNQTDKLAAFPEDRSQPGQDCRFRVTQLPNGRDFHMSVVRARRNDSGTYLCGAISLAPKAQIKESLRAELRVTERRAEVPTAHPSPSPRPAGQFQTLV
Chain of cynomolgus PD-1 (Sino Biological), coated on plates (B0LAJ3 entry or part of it limits assumed): as the sequence (Q15116 25-170) above, with D2E, P10A, V19L, T35A, Q75R, T144A counted along it
Chain of human PD-1 antigen protein of the affinity-maturation screen (Q15116 25-167 limits assumed): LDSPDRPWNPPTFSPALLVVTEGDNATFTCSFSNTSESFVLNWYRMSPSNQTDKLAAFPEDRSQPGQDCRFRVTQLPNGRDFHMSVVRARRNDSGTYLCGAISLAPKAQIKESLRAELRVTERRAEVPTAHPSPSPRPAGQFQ
T3 sequence (Q15116 25-167 limits assumed): as above

B1: 1H6 (antibody, human IgG4, V domains shown)
VH: QVQLVQSGAEVKKPGSSVKVSCKASGFTFTTYYISWVRQAPGQGLEYLGYINMGSGGTNYNEKFKGRVTITADKSTSTAYMELSSLRSEDTAVYYCAILGYFDYWGQGTMVTVSS
VL: DVVMTQSPLSLPVTLGQPASISCRSSQSLLDSDGGTYLYWFQQRPGQSPRRLIYLVSTLGSGVPDRFSGSGSGTDFTLKISRVEAEDVGVYYCMQLTHWPYTFGQGTKLEIK
Take B1: the EC50 – broadly, the concentration giving half of the maximal effect – in test [1] was found to be 15.1 nM; in test [2], 2.64 nM; in test [3], 0.2 nM; in [4], 0.34 nM; in [5], 0.28 nM. Moreover, the Kd (commonly the constant that tells how readily two partners part at equilibrium) came to 53.9 nM in test [6], 0.215 nM in test [7], 14.3 nM with hPD-1.His and 9.37 nM with mPD-1.His. Also, the binding result in [8] and in [9] was “no binding” in each case. For the same molecule, the off-rate constant (koff) (commonly the rate constant with which the complex falls apart) in the test with hPD-1.His turned out to be 0.00918 s⁻¹; with mPD-1.His it was 0.003 s⁻¹. Also, the kon – broadly, the rate constant with which the complex forms – with hPD-1.His was 644000 M⁻¹ s⁻¹; with mPD-1.His, 320000 M⁻¹ s⁻¹. The Bmax in [10] amounted to 3.35; in test [11], 0.221; in [12], 0.317. Further, the half-maximal inhibitory concentration (IC50) (usually the concentration that inhibits the measured activity by half) was 20.4 nM in [13], 2.22 nM in test [14], 17.6 nM in test [15] and 8.77 nM in [16].

B2: 2C2 (antibody, human IgG4, V domains shown)
VH: QVQLVQSGAEVKKPGSSVKVSCKASGFTFTTYYISWVRQAPGQGLEYLGYINMGSGGTNYNEKFKGRVTITADKSTSTAYMELSSLRSEDTAVYYCAIIGYFDYWGQGTMVTVSS
VL: DVVMTQSPLSLPVTLGQPASISCRSSQSLLDSDGATYLYWFQQRPGQSPRRLIYLVSTLGSGVPDRFSGSGSGTDFTLKISRVEAEDVGVYYCMQLTHWPYTFGQGTKLEIK
Regarding B2, the EC50 in test [1] amounted to 11.8 nM; in test [2], 2.36 nM; in [3] it was 0.12 nM; in test [4] it was 0.41 nM; in test [5], 0.12 nM. Moreover, the Kd in [6] was determined as 17.4 nM; in test [7], 0.264 nM; with hPD-1.His, 5.64 nM; with mPD-1.His, 6.92 nM. In addition, the binding result in test [8] and in [9] was “no binding” each time. The koff was determined as 0.00414 s⁻¹ with hPD-1.His and 0.00153 s⁻¹ with mPD-1.His. In addition, the kon with hPD-1.His turned out to be 733000 M⁻¹ s⁻¹; with mPD-1.His it was 221000 M⁻¹ s⁻¹. The Bmax in test [10] stood at 3.17; in test [11], 0.416; in test [12], 1.67. Further, the IC50 in test [13] was 16.7 nM; in [14], 2.2 nM; in test [15], 11.1 nM; in test [16] it was 6.55 nM.

B3: 2G4 (antibody, human IgG4, V domains shown)
VH: QVQLVQSGAEVKKPGSSVKVSCKASGFTFTTYYISWVRQAPGQGLEYLGYINMGSGGTNYNEKFKGRVTITADKSTSTAYMELSSLRSEDTAVYYCAIIGYFDYWGQGTMVTVSS
VL: DVVMTQSPLSLPVTLGQPASISCRSSQSLLDSDGSTYLYWFQQRPGQSPRRLIYLVSTLGSGVPDRFSGSGSGTDFTLKISRVEAEDVGVYYCMQLTHWPYTFGQGTKLEIK
B3: the concentration giving a half-maximal response (EC50) came to 14.8 nM in [1]; 2.78 nM in test [2]; 0.21 nM in test [3]; 0.2 nM in test [4]; 0.36 nM in test [5]. The equilibrium dissociation constant (Kd) in [6] turned out to be 35.1 nM; in [7] it was 0.38 nM; with hPD-1.His, 7.09 nM; in the test with mPD-1.His, 3.89 nM. Besides, the binding result in [8] and in test [9] was “no binding” in each case. The koff in the test with hPD-1.His came to 0.0047 s⁻¹; with mPD-1.His it was 0.0013 s⁻¹. For the same molecule, the values for the on-rate constant (kon) with hPD-1.His and with mPD-1.His were 663000 M⁻¹ s⁻¹ and 334000 M⁻¹ s⁻¹, respectively. Moreover, the Bmax in test [10] was 3.37; in [11] it was 0.479; in [12], 1.72. The IC50 in test [13] is 18.7 nM; in [14], 2.23 nM; in test [15] it was 17.2 nM; in test [16] it was 8.93 nM.
